The text below walks through data of publication PMC9481563 (2022).

Broadly, the Kd is the concentration at which binding is half-saturated. A higher Kd goes with weaker binding.

To fix the notation:
B1: CF-ppIRS1, carboxyfluorescein-labelled pY632 + pS636 IRS1 peptide (peptide)
chain: GRKGSGDYMPMSPKS
modifications: phosphotyrosine at Y632; phosphoserine at S636; C-terminal lysine-ε-carboxyfluorescein label

Where no end group is shown, it is not given here. [ ]: non-standard residue; d: D form. pY = N[C@@H](Cc1ccc(OP(=O)(O)O)cc1)C(=O)O; pT = C[C@@H](OP(=O)(O)O)[C@H](N)C(=O)O; pS = N[C@@H](COP(=O)(O)O)C(=O)O

T1 sequence (P27986 321-433): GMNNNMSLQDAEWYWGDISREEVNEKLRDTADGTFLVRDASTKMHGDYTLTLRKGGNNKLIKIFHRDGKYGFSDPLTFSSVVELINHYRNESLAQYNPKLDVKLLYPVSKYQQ

One test concerns the target T1, PIK3R1 (p85) N-terminal SH2 domain (321-433) (human, UniProt P27986 321-433). The experiment in a line: FP.
GRKGSGD[pY]MPM[pS]PKS [ppIRS1, IRS1 peptide dually phosphorylated (pY632 + pS636)]: the Kd came out at 306 nM.

In the case of B1, the Kd was determined as 412 nM.

GRKGSGD[pY]MPMSPKS [p0IRS1, IRS1 peptide with phosphotyrosine only (pY632)]: the Kd worked out at 184 nM.

For a further test, the target named is T2, PIK3R1 (p85) C-terminal SH2 domain (614-724) (human, UniProt P27986 614-724). The experiment in a line: FP.
T2 sequence (P27986 614-724): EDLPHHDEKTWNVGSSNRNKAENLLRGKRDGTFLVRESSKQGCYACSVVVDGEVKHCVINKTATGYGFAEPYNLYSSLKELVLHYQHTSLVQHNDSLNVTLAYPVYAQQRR
GRKGSGD[pY]MPM[pS]PKS [ppIRS1, IRS1 peptide dually phosphorylated (pY632 + pS636)] gave a Kd of 5.1 nM.

B1 gave a Kd of 10.6 nM.

GRKGSGD[pY]MPMSPKS [p0IRS1, IRS1 peptide with phosphotyrosine only (pY632)]: the Kd was determined as 8.1 nM.

For the next test, the target named is T1, PIK3R1 (p85) N-terminal SH2 domain …. The experiment in a line: FP. The source holds these as a separate data set.
As for B1, the Kd is 383 nM.

Regarding RSRLLHSD[pY]MNM[pT]PRR [ppCD28, CD28 peptide dually phosphorylated (pY191 + pT195)], binding was characterised by a dissociation constant (Kd) of 285 nM.

Molecule RSRLLHSD[pY]MNMTPRR [p0CD28, CD28 peptide with phosphotyrosine only (pY191)] yielded a Kd of 104 nM.

A further test addresses T2, PIK3R1 (p85) C-terminal SH2 domain …. Put plainly: FP. This is another data set of the same source.
Consider B1, for which the equilibrium dissociation constant (Kd) is 5.7 nM.

For the molecule RSRLLHSD[pY]MNM[pT]PRR [ppCD28, CD28 peptide dually phosphorylated (pY191 + pT195)], the Kd was 22.9 nM.

With RSRLLHSD[pY]MNMTPRR [p0CD28, CD28 peptide with phosphotyrosine only (pY191)], binding was put at a Kd of 11 nM.
